{
  "source": "patent US11116820B2",
  "about": "“Treatment of hyperinsulinemic hypoglycemia with exendin-4 derivatives” (priority 2016, dated 2021)",
  "key": {"[1]": {"molecular_target": "T1, mouse GLP-1 receptor (Mus musculus, UniProt O35659)", "T1 construct": "cells that endogenously express the mouse GLP-1 receptor; endogenous in cells; host or cells: βTC6 cells (mouse)", "T1 sequence (O35659 22-463)": "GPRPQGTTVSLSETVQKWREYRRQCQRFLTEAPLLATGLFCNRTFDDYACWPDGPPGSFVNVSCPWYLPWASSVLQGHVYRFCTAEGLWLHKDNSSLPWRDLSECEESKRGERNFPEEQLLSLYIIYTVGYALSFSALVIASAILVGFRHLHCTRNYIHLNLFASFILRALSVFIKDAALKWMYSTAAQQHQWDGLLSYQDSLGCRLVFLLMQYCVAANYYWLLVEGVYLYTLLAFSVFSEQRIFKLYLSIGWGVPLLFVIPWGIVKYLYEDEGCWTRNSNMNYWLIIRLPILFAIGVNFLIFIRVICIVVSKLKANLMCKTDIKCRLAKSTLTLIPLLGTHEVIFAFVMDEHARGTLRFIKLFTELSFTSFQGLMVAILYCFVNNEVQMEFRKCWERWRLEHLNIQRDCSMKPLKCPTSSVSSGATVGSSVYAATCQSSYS", "assay": "cAMP functional assay (HTRF), antagonist mode, βTC6 cells stimulated with 0.3 nM GLP-1 (7-37)", "type": "cell-based", "details": "10 minutes at room temperature", "protocol": "(§1) The agonistic and antagonistic effects of each of the four peptides on the receptor GLP-1 was tested in βTC6 cells, which are cells that endogenously express the mouse GLP-1 receptor, in a cAMP functional assay.\nFollowing the incubation period, the resulting intracellular level of cAMP was measured by HTRF."}, "[2]": {"molecular_target": "T1, mouse GLP-1 receptor", "assay": "cAMP functional assay (HTRF), agonist mode, in βTC6 cells", "type": "cell-based", "details": "peptides dissolved at 10 mM in PBS, 10 minutes at room temperature", "protocol": "as §1, with “assay. […] Following the incubation period, the resulting intracellular level of cAMP was measured by homogenous time resolved fluorescence (HTRF).” for “assay.”"}},
  "data": [
    {"substance": "pegylated exendin(9-39): pegylated form of exendin(9-39), tested as comparator peptide", "values": [
      {"measurement": "antagonistic activity on GLP-1 receptor, overall (in words)", "setting": "[1]", "result": "did not exhibit significant antagonistic activity"},
      {"measurement": "agonistic activity on GLP-1 receptor (intracellular cAMP)", "setting": "[2]", "result": "None of the four peptides exhibited agonistic activity"}
    ]}
  ]
}
